# Laboratory results published in the Human Domainome abundance scans (Beltran et al. 2025).
# ± gives the uncertainty stated by the source.
# Assay: abundance fitness (aPCA) (normalised: wild type 0, dead -1); higher = more abundant; growth selection in yeast, the domain comes from the species named
# Conditions: Homo sapiens
row,Substance,abundance fitness
1,"DnaJ homolog subfamily B member 1 A49N, P25685",0.115 ± 0.17
2,"DnaJ homolog subfamily B member 1 Q27C, P25685",0.012 ± 0.14
3,"DnaJ homolog subfamily B member 1 L9C, P25685",-0.823 ± 0.11
4,"DnaJ homolog subfamily B member 1 T8I, P25685",0.036 ± 0.088
5,"DnaJ homolog subfamily B member 1 L55F, P25685",-0.649 ± 0.1
6,"DnaJ homolog subfamily B member 1 A12S, P25685",-0.191 ± 0.078
7,"DnaJ homolog subfamily B member 1 R25F, P25685",-0.199 ± 0.12
8,"DnaJ homolog subfamily B member 1 K44A, P25685",-0.138 ± 0.092
9,"DnaJ homolog subfamily B member 1 I20H, P25685",-0.948 ± 0.13
10,"DnaJ homolog subfamily B member 1 D17V, P25685",-0.059 ± 0.053
11,"DnaJ homolog subfamily B member 1 A15P, P25685",-0.702 ± 0.098
12,"DnaJ homolog subfamily B member 1 F45E, P25685",-0.277 ± 0.095
13,"DnaJ homolog subfamily B member 1 A12Y, P25685",-0.559 ± 0.46
14,"DnaJ homolog subfamily B member 1 G40M, P25685",-0.14 ± 0.1
15,"DnaJ homolog subfamily B member 1 E47K, P25685",-0.43 ± 0.12
16,"DnaJ homolog subfamily B member 1 E38P, P25685",-0.342 ± 0.14
17,"DnaJ homolog subfamily B member 1 A41L, P25685",-0.168 ± 0.066
18,"DnaJ homolog subfamily B member 1 E42W, P25685",-0.122 ± 0.11
19,"DnaJ homolog subfamily B member 1 L29Q, P25685",0.086 ± 0.18
20,"DnaJ homolog subfamily B member 1 V54D, P25685",-0.419 ± 0.14
21,"DnaJ homolog subfamily B member 1 E43L, P25685",0.105 ± 0.066
22,"DnaJ homolog subfamily B member 1 D65Q, P25685",-0.124 ± 0.11
23,"DnaJ homolog subfamily B member 1 S16H, P25685",-0.24 ± 0.13
24,"DnaJ homolog subfamily B member 1 D57F, P25685",-0.668 ± 0.17
25,"DnaJ homolog subfamily B member 1 G40H, P25685",-0.131 ± 0.15
26,"DnaJ homolog subfamily B member 1 Y31A, P25685",-0.175 ± 0.12

row,Substance,abundance fitness
1,"DnaJ homolog subfamily B member 1 D4H, P25685",-0.236 ± 0.44
2,"DnaJ homolog subfamily B member 1 L9R, P25685",-1.01 ± 0.095
3,"DnaJ homolog subfamily B member 1 E42S, P25685",-0.016 ± 0.065
4,"DnaJ homolog subfamily B member 1 G40N, P25685",-0.173 ± 0.18
5,"DnaJ homolog subfamily B member 1 P39A, P25685",-0.037 ± 0.074
6,"DnaJ homolog subfamily B member 1 D53C, P25685",-0.093 ± 0.37
7,"DnaJ homolog subfamily B member 1 P39H, P25685",0.054 ± 0.28
8,"DnaJ homolog subfamily B member 1 P58V, P25685",-0.191 ± 0.094
9,"DnaJ homolog subfamily B member 1 E43K, P25685",0.156 ± 0.1
10,"DnaJ homolog subfamily B member 1 R13Y, P25685",-0.279 ± 0.091
11,"DnaJ homolog subfamily B member 1 K37T, P25685",-0.228 ± 0.11
12,"DnaJ homolog subfamily B member 1 D34Q, P25685",0.054 ± 0.11
13,"DnaJ homolog subfamily B member 1 Y6G, P25685",-0.977 ± 0.2
14,"DnaJ homolog subfamily B member 1 N36W, P25685",-0.097 ± 0.099
15,"DnaJ homolog subfamily B member 1 K60M, P25685",-0.462 ± 0.11
16,"DnaJ homolog subfamily B member 1 K44R, P25685",-0.057 ± 0.084
17,"DnaJ homolog subfamily B member 1 P33A, P25685",-0.055 ± 0.075
18,"DnaJ homolog subfamily B member 1 R25M, P25685",-0.078 ± 0.12
19,"DnaJ homolog subfamily B member 1 A12M, P25685",-0.139 ± 0.067
20,"DnaJ homolog subfamily B member 1 A41V, P25685",-0.02 ± 0.075
21,"DnaJ homolog subfamily B member 1 G14C, P25685",-0.266 ± 0.12
22,"DnaJ homolog subfamily B member 1 D53Y, P25685",-0.356 ± 0.077
23,"DnaJ homolog subfamily B member 1 A23R, P25685",-0.442 ± 0.066
24,"DnaJ homolog subfamily B member 1 R26L, P25685",0.068 ± 0.075
25,"DnaJ homolog subfamily B member 1 Q27N, P25685",-0.14 ± 0.12
26,"DnaJ homolog subfamily B member 1 A49S, P25685",-0.037 ± 0.074
